Measured values taken from patent US20250032630A1, “B7H4 ANTIBODY-DRUG CONJUGATE AND USE THEREOF” (Duality Biologics (Suzhou) Co., Ltd., priority 2022, published 2025).
Positions count from the first letter of the chain named.

What was measured:
[1] = target: T1, human B7H4 (human, UniProt Q7Z7D3 25-282); experiment: cell-based or functional assay
T1 sequence (looked up): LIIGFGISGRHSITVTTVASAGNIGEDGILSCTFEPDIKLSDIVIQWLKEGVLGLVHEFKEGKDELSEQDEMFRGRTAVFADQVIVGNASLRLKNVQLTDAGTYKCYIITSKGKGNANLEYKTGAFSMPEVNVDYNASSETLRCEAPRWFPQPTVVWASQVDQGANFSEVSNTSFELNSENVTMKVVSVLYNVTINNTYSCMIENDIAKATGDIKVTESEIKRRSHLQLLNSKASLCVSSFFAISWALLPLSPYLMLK

[2] = target: T2, human CD86 (B7-2) (human, UniProt P42081 24-329); experiment: flow cytometry on HEK293T cells stably expressing the human protein, one concentration
T2 construct: whole, on cells
T2 sequence (looked up): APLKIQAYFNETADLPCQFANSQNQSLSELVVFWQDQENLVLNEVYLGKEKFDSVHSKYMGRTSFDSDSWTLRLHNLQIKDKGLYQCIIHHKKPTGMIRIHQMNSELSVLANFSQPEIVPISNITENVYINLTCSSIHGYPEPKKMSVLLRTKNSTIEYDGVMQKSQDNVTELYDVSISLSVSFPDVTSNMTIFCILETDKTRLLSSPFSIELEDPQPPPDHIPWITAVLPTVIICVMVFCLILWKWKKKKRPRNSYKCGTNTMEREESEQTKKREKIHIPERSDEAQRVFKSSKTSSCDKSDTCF

[3] = target: T3, human CD276 (B7-H3) (human, UniProt Q5ZPR3 29-534); experiment: as above
T3 construct: whole, on cells
T3 sequence (looked up): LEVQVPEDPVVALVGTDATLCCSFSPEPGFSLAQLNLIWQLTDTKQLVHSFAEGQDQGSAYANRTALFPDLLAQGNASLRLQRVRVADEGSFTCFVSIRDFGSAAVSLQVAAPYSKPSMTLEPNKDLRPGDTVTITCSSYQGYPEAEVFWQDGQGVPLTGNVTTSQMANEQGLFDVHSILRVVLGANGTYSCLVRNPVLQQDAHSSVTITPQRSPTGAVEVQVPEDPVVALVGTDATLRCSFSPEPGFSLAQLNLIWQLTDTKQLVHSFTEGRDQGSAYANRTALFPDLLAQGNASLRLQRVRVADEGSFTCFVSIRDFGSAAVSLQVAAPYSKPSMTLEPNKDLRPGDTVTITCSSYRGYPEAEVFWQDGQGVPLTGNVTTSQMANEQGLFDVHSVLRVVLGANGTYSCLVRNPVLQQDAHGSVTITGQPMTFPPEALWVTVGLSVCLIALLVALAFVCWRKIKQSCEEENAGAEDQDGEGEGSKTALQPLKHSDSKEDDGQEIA

[4] = target: T4, human VISTA (B7-H5) (human, UniProt Q9H7M9 33-311); experiment: as above
T4 construct: whole, on cells
T4 sequence (looked up): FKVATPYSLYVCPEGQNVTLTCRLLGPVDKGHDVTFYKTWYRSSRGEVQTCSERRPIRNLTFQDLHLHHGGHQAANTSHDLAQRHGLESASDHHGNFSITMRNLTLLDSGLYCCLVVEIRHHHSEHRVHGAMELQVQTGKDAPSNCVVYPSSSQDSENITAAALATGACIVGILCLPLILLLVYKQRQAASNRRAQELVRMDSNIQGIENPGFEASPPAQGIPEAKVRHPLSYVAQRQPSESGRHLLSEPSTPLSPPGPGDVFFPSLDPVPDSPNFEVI

[5] = target: T5, human B7-H7 (HHLA2) (human, UniProt Q9UM44 23-414); experiment: flow cytometry on CHO-KI cells stably expressing human B7-H7 (HHLA2), one concentration
T5 construct: whole, on cells
T5 sequence (looked up): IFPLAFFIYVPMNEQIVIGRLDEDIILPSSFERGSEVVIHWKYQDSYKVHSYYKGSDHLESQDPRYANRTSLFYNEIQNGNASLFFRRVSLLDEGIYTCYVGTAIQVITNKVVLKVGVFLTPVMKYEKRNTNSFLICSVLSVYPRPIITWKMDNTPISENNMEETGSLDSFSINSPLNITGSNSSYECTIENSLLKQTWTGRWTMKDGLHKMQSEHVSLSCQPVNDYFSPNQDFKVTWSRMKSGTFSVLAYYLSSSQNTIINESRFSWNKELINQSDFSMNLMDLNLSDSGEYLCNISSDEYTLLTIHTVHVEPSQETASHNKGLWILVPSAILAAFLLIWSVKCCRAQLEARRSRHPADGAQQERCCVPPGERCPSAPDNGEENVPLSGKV

[6] = target: T1, human B7H4; experiment: flow cytometry on human B7H4-transfected HEK293T cells, PE anti-human IgG Fc secondary antibody
[7] = target: T6, mouse B7H4 (mouse, UniProt Q7TSP5 25-257); experiment: flow cytometry on mouse B7H4-transfected HEK293T cells, PE anti-human IgG Fc secondary antibody
T6 construct: whole, on cells; also called Mouse B7H4-293T
T6 sequence (looked up): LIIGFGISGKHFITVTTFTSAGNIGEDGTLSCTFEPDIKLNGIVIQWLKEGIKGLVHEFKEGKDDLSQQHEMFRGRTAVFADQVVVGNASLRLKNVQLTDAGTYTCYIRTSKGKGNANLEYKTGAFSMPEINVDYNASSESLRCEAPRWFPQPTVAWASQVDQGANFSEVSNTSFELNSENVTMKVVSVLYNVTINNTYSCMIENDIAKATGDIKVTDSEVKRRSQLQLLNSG

[8] = target: T7, cynomolgus monkey B7H4 (cynomolgus monkey, UniProt A0A2K5U6P5 25-282); experiment: flow cytometry on cynomolgus monkey B7H4-transfected HEK293T cells, PE anti-human IgG Fc secondary antibody
T7 construct: whole, on cells; also called Monkey B7H4-293T
T7 sequence: T1 sequence (looked up) with L53I, F242L, S252A

B1: antibody-drug conjugate DB1001-X2 (antibody, DAR 5.4, V domains shown)
VH: QVQLVESGGGVVQPGRSLRLSCAASGFTFRSFGMHWVRQAPGKGLEWVAVISYDASNEYYADSVKGRFIISRDNSKDTLYLQMNSLRAGDTAVYYCAKGGALRWYFAYWGQGTLVTVSS
VL: EIVMTQSPATLSVSPGERATLSCRASQSISSNLGWYQQKPGQAPRLLIYGASTRATGIPARFSGSGSGTEFTLTISSLQSEDFAVYYCQQYRSWPPLTFGGGTKVEIKR
modifications: linker-cytotoxin X2 (payload P-III-30) coupled after TCEP reduction of the antibody; drug-to-antibody ratio (DAR) of 5.4; conjugation residues not stated
notes: also called anti-B7H4 ADC DB1001-X2
IC50 (nM), in vitro proliferation inhibition of MDA-MB-468 cells (CTG, 7 days) [1]: 50.7 nM
binding result [2]: no binding (tested: 100 nM or 300 nM)
binding result [3]: no binding (tested: 100 nM or 300 nM)
binding result [4]: no binding (tested: 100 nM or 300 nM)
binding result [5]: no binding (tested: 100 nM or 300 nM)
EC50 [6]: 2.18 nM
binding result [7]: no binding (tested: highest concentration 100 nM)
EC50 [8]: 5.36 nM
